B1: CA124 (antibody, V domains shown)
VH: QVQLVESGGGLVKPGGSLRLSCAASGFTFSDYYMSWIRQAPGKGLEWVSYISSSGSTIYYADSVKGRFTISRDNAKNSLYLQMNSLRAEDTAVYYCASGFSSWGADDYWGQGTLVTVSS
VL: HPDDPVSSSLSASVGDRVTITCRASQGISNYLAWFQQKPGKAPKSLIYAASSLQSGVPSKFSGSGSGTDFTLTISSLQPEDFATYYCQQYNSYPLTFGQGTKLEIK
B2: CA123 (antibody, V domains shown)
VH: EVQLVESGGGLVQPGGSLRLSCAASGFTFSSYWMHWVRQAPGKGLVWVSRINSDGSSTSYADSVKGRFTISRDNAKNTLYLQMNSLRAEDTAVYYCARDQGSTSCYYCYYGMDVWGQGTTVTVSS
VL: not shown
B3: CA128 (antibody, V domains shown)
VH: QVQLVESGGGLVKPGGSLRLSCAASGFTFSDYYMSWIRQAPGKGLEWVSYISSSGSTIYYADSVKGRFTISRDNAKNSLYLQMNSLRAEDTAVYYCARDSGSFVGVFDYWGQGTLVTVSS
VL: not shown
B4: CA125 (antibody, V domains shown)
VH: EVQLVESGGGLVKPGGSLRLSCAASGFTFSSYSMNWVRQAPGKGLEWVSSISSSSSYIYYADSVKGRFTISRDNAKNSLYLQMNSLRAEDTAVYYCARVVDTAMGDAFDIWGQGTMVTVSS
VL: not shown
B5: CA134 (antibody, V domains shown)
VH: EVQLVESGGGLVKPGGSLRLSCAASGFTFSSYSMNWVRQAPGKGLEWVSSISSSSSYIYYADSVKGRFTISRDNAKNSLYLQMNSLRAEDTAVYYCARVFGEQLVSFFDYWGQGTLVTVSS
VL: EIVMTQSPPGERATLSCRASQSVSSNLAWYQQKPGQAPRLLIYGASTRATGIPARFSGSGSGTEFTLTISSLQSEDFAVYYCQQYNNWPPWTFGQGTKVEIK
B6: CA120 (antibody, V domains shown)
VH: EVQLVESGGGLVQPGGSLRLSCVASGFTFSTYSMNWVRQAPGKGLEWVSYISSSSSTIYYADSVKGRFTISRDNAKNSLYLQMNSLRAEDTAVYYCARDPGWLSWFDPWGQGTLVTVSS
VL: RSLPAPWSLSPGERATLSCRASQSVSNSYLAWYQQKPGQAPRLLIYGASSRATGIPDRFSGSGSGTDFTLTISRLEPEDFAVYYCQQYGGSPRTFGQGTKVEIK
B7: CA132 (antibody, V domains shown)
VH: EVQLVESGGGLVQPGGSLRLSCVASGFTFSTYSMNWVRQAPGKGLEWVSYISSSSSTIYYADSVKGRFTISRDNAKNSLYLQMNSLRAEDTAVYYCARDPGWLSWFDPWGQGTLVTVSS
VL: EIVLTQSPPGERATLSCRASQSVSNSYLAWYQQKPGQAPRLLIYGASSRATGIPDRFSGSGSGTDFTLTISRLEPEDFAVYYCQQYGGSPRTFGQGTKVEIK
B8: CA133 (antibody, V domains shown)
VH: EVQLVESGGGLVQPGGSLRLSCVASGFTFSSYSMNWVRQAPGKGLEWVSYISSSSSTIYYADSVKGRFTISRDNAKNSLYLQMNSLRAEDTAVYYCARDPGWLSWFDPWGQGTLVTVSS
VL: not shown
B9: CA135 (antibody, V domains shown)
VH: EVQLVESGGGLVQPGGSLRLSCVASGFTFSTYSMNWVRQAPGKGLEWVSYISSSSSTIYYADSVKGRFTISRDNAKNSLYLQMNSLRAEDTAVYYCARDPGWLSWFDPWGQGTLVTVSS
VL: not shown
B10: CA137 (antibody, V domains shown)
VH: EVQLVESGGGLVQPGGSLRLSCVASGFTFSTYSMNWVRQAPGKGLEWVSYISSSSSTIYYADSVKGRFTISRDNAKNSLYLQMNSLRAEDTAVYYCARDPGWLSWFDPWGQGTLVTVSS
VL: not shown
B11: CA131 (antibody, V domains shown)
VH: QLQLQESGSGLVKPSQTLSLTCAVSGGSISSGGYSWSWIRQPPGKGLEWIGYIYHSGSTYYNPSLKSRVTISVDRSKNQFSLKLSSVTAADTAVYYCATGGGHKELGGWGQGTLVTVSS
VL: not shown

The target of the assay is soluble HLA-E-VL9, HLA-E*01:03 heavy chain refolded with β2-microglobulin and synthetic VL9 peptide (Homo sapiens, HLA-E*01:03, strain).
Regarding B1, the binding result is “binds”.
A word on the Kd: it is the free concentration of one partner at which half of the binding sites on the other are occupied at equilibrium, for simple one-to-one binding. Low values mean higher affinity, high ones lower affinity. For the molecule B2, the affinity, expressed as Kd, was 3.8 µM.
Turning to B3, the binding result was “binds”.
As for B4, the binding result is on record as “binds”.
Consider B5, for which the binding result is reported as “binds”.
For the molecule B6, the binding result is on record as “binds”.
B7: the binding result is recorded as “binds”.
For the molecule B8, the binding result is on record as “binds”.
On the same count and under the same terms, with B9 the entry was “binds”.
Consider B10, for which the binding result was “binds”.
Turning to B11, the binding result was “binds”.
